In the supplement of paper PMC9170038:

tested on: K4 kissing-loop RNA reporter; assay: apparent KD of K4 kissing-loop reporter; higher = weaker reporter binding; conditions: Eterna round: R107; input ligand: none
Method: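 RNA-MaP round R107: designed RNA switches with theophylline, tryptophan, arginine or FMN aptamers are transcribed on-chip within common flanks. They are titrated with a labelled K4 kissing-loop RNA reporter in RNA-MaP buffer (100 mM Tris pH 7.5, 80 mM KCl, 4 mM MgCl2), without ligand or with the indicated ligand. Median apparent KD per design.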
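Also: bound reporter read as fluorescence of individual clusters on recovered sequencing chips by microscopy, with normalized cluster intensities fitted with a binding model.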

Going from “CGCCGCAAGGCGAGCGCUCCCACUCCGGAAGGAGCGCCCGCAAGGGCAGGUAGGUCGCCGGAGUGAUGUUCCGGUGGAGGGCUCG [#2 Exclusion - Arginine A Attempt #15 (Inspired by Omei)]” to “UGUCAUUGGUCGGCCGCCACUUCAUAAAGAGUGAUGUUCUAAAAGACGGAUCGAAAGAUCUGUCGAAGGACCGGGAUCGAUGACU [FiskerMod 11 - Jieux - Same State - Tryptophan B]”, the “apparent KD of K4 kissing-loop reporter” value rises from 0.376 µM to 0.998 µM (2.7-fold).

“AAAUUGUUUAGAGGAUAUUCUUUAUUCGACAUAACCUUCUAUAAGGUGCAGUGAUGUUGCAAUAUAGGAGAAGGCUGAGCGAUAA [Exclusion FMN B Gf 14]” and “CGCAGUGAUGUUGCGAGUAGCUACAGGGAAGGAGCGUGCUAGAGCACAGGUAGGUCGCCCACGCAGUGAUGUUGUGUCAAAGGGU [Exclusion Arginine A GF 11]” are within 1.5-fold of each other in “apparent KD of K4 kissing-loop reporter” value: 0.217 µM for the first, 0.165 µM for the second.

Going from “UCUGCUGUAUAUGAUACCAGCAGUGAGAGACCAGAAGUAUAGUGAUGUUAUAUGAGAGAAUGCCCUUGGCAGCGUGUGCGGGUGG [SSTheophylB.Z]” to “AGACCUCAGUGAUGUUGAGGUAACACUGAUACCAGCGACUUGAUUCGCCCUUGGCAGCAGUCCACCGAGGUAUCUGAUCAGGUCA [#25 K4 Theophylline A Exclusion]”, the “apparent KD of K4 kissing-loop reporter” value rises from 0.0675 µM to 0.137 µM (2-fold).

“GCGCGCGGCGGAGGAUAUAGCAGGUGAUCCGAGAAAGUGAGUGAUGUUUACGGAGAUGAUGAUAUGUUAGAAGGCCGCCGCGCGC [abcdefghijklmnopqrstuv]” and “GCAAAACUCAGUGAUGUUGAGAUAUCGGAAGGAGCGCGUGAAAACGCAGGUAGGUCGCCGAUUCAAUGAGUUUCUCGUUGUUUGC [Arginine A K4 20]” are within 1.5-fold of each other in “apparent KD of K4 kissing-loop reporter” value: 0.437 µM for the first, 0.318 µM for the second.

“ACCCGGGCCCGAAAGGGCCCGGGAAGAGAUACCAGCAGCGAAAGCUGCCCUUGGCAGCUCACUUAGUGAUGUUGAGUAUAGGGUA [#22 K4 Theophylline A Same State]” and “UGUACCGAGUCAGGAUAUGGCGUCGAAAGACGAAACCAGUGAUGUUGGAAUCGAUCGAAAGAUCGUCCAGAAGGGACUUGGUACU [FmnBS 21 #SwitchBubble #StaticStem #DoubleMagnetSystem]” are within 1.5-fold of each other in “apparent KD of K4 kissing-loop reporter” value: 0.279 µM for the first, 0.377 µM for the second.

First: AAACAUAAGUCUGAUACCAGCCUGGGAGAAGUGAUGUUUCUCGGUGCAUAACGCCUAUAAGGCCCUUGGCAGCAGCAUGCGCUUC [theeternabot_sameState_KL_Theo_B_10]
Second: UAUUCUGUUCGAAAGAACGGAAUUUCGGAAGGAGCGCGAGAAAUCGCAGGUAGGUCGCCGAAAUUAUUAGGUAGUGAUGUUACCU [Arginine A K4 6]
The “apparent KD of K4 kissing-loop reporter” value of the first is 4.7-fold higher: 0.569 µM for the first, 0.12 µM for the second.

Going from “AUUAAUUUCAGAGGAUAUGCUUUAUUAUUAUUUUUAAAUAAUAAAUGCAGUGAUGUUGCUUAUUAUGCAGAAGGCUGAUUUAUAA [JR_SSFMNB_Sub014]” to “UUUGCAAAGUCGGCCGCCACUCCGGGCCCUAUAAAUGGGCGCAGUGAUGUUGCGGCUAGGCCUCUGAGGACCGGGACUUUGUAAA [Inusleve]”, the “apparent KD of K4 kissing-loop reporter” value falls from 0.603 µM to 0.0523 µM (12-fold).

Compared with “GCCUGUGCACGAAGGAGCGCCGUGACAGGUUACUGCCUUGGGCAGUGAUGUUGCUCAAUCUGGCAGGUAGGUCGCGUGCACAGGC”, “GCCUUUGUACAGUCCGUUUGUCAUGUGGAUACCAGCAGGAUAGCUUGCCCUUGGCAGCCAUCCAUUUAAUGUAGUGAUGUUACGC [theeternabot_exclusion_KL_Theo_A_13]” is 2.9-fold higher in “apparent KD of K4 kissing-loop reporter” value: 0.166 µM for the first, 0.477 µM for the second.

Going from “AUUUAGACGAGUGAUGUUCGUGUUAUUACAGAGGAUAUGCGUAAUUGCAGAAGGCUGUAUUUAUAUAUGUUAUGUAAUUUUAAAA [JR_ExcFMNA_Sub007]” to “CCGGCCCGGCCGGAUACCAGUGCGCCGCUGUGAACUGCGGGCCCAGAGUGAUGUUCGGGACACCCUUGGCAGCCGCCUGGGUCGC [#2 Same State - Theophylline B Attempt #26 (HarryS)]”, the “apparent KD of K4 kissing-loop reporter” value rises from 0.088 µM to 0.444 µM (5-fold).

Compared with “GACUCAUGUAGAAGGAGCGUCAGAAGUUAUAGACAUGAGUGAUGUUCAUGUUAGCUGAUUUGACAGGUAGGUCGCUACAGCAGGA [KL-SSArg B16 #analogue]”, “UGGCAAGUGAUGUUUGCGUUUCCGCAGGAUACCAGUCUGUCUUGAGACCCUUGGCAGCCUGGGUACAGUCCAAGCGGUCACACGA [theeternabot_exclusion_KL_Theo_A_38]” is 3.2-fold higher in “apparent KD of K4 kissing-loop reporter” value: 0.126 µM for the first, 0.405 µM for the second.

With “UGGAGUUGACGAAAAGUCAACUCCUGAGAAGGAGCGGACGAAAGUCCAGGUAGGUCGCUCACUACCAGUGAUGUUGGUACUGAAA” the “apparent KD of K4 kissing-loop reporter” value was 0.203 µM.

same assay, conditions: Eterna round: R107; input ligand: theophylline 20 uM

Compared with “UUCUAAAUGUCUGAUACCAGAGAAAAUAUAUGUAGUGAUGUUAUAUACAAAUUUAAUAAGCUCCCUUGGCAGCAGUAUGAAUUUU [AstrosExc-TheB#13]”, “AGCCGAAAGGCGAGUGCUGUCGCUCCGGAAGGAGCGCAGGAAACUGCAGGUAGGUCGCCGGAGUGAUGUUUUGGUGCAGCACUCA [Omei KL Arginine A Exc B v7]” is 5.7-fold lower in “apparent KD of K4 kissing-loop reporter” value: 0.755 µM for the first, 0.132 µM for the second.

Compared with “UCCUGCAAUCUGCCACGAAAGUGGAUUGAUACCAGAGUCGAAAGACUCCCUUGGCAGCGAGUGAUGUUCGUUGCAGGUAAAUAAA [MatMod 7 - Jieux - Exclusion - Theophylline A]”, “AUUCGUUUAUGUGAUACCAGACUUUGCAGUGAUGUUGCAUUAAUUUUUGAUUAUUAGUUUGUCCCUUGGCAGCACUAUUUAUUUA [JR_SSTheophyB_Sub004]” is 2.1-fold lower in “apparent KD of K4 kissing-loop reporter” value: 0.17 µM for the first, 0.0801 µM for the second.

“UCGAACGAUGGAAGGAGCGCUCGUCAGUCCUGCGAGUGAUGUUCGUGGGUAAAUAGUCGCGAGCAGGUAGGUCGCCAUCUUGAGC [Indiermaar]” and “UUCAGGUGUUCGGCCGCCACUCCAGUGAUGUUGGAGUGGCUUCACAAGGGCCAGGACAAUGUAAGGAGGACCGGGAAUAUCGCAG [Quonerar]” are within 1.5-fold of each other in “apparent KD of K4 kissing-loop reporter” value: 0.128 µM for the first, 0.0892 µM for the second.

“CCUAUCUCAUACGAUACCAGUCAAAAUAUAAUUAACCAGUGAUGUUGGAUUUACCAAGGAGACCCUUGGCAGCGUAUGGGAUAGG [Ex Theophylline B K4 18]” and “UCCUGCAAUCCGCCACGAAAGUGGAUGGAUACCAGAGUCGAAAGACUCCCUUGGCAGCCAGUGAUGUUGGAAGCAGGUAAAUAAA” are within 1.5-fold of each other in “apparent KD of K4 kissing-loop reporter” value: 0.517 µM for the first, 0.656 µM for the second.

“AAUUUAUGAUCUGAUACCAGACUUUAUCUUGUUUAUAAGUCAAGUGAUGUUUGACUAUUAGUCCCUUGGCAGCAGUAUUGUUUAA [#17 K4 Theophylline B Same State]” and “GGAUAGGACUGAGGAUAUGGGCUAGGCAAGAAUAACUUGUCUAGCAAAUCCAUGAGGAGUGAUGUUCCAGAAGGCGGUCCUAUCG [FmnBX 1 U10+G76]” are within 1.5-fold of each other in “apparent KD of K4 kissing-loop reporter” value: 0.208 µM for the first, 0.173 µM for the second.

First: UAGUCAUACAGAGGAUAUCGUAUGAGUGAUGUUCAUAUGCGUACAUCAACUUGAUGUACACCUAGACGAGAAGGCUGUAUGACUA [FMB B SS t6a]
Second: UGAUAGGACAGAAGGAGCGGAAGUGAUGUUUCCAAAAGGAGAGGUCGACAAAGUCGACCCUUCCAGGUAGGUCGCUGUCCUAUCU [ArgBX 10 #Palindromic #SwitchBubble #StaticStem]
The “apparent KD of K4 kissing-loop reporter” value of the first is 2-fold higher: 0.212 µM for the first, 0.105 µM for the second.

“GCGUGCCAUGCAGGAUAUAGUUGUUCGAGUGAUGUUCGAGCCUUGCUAAGUUCGGAGCAUCAGCUUCUAGAAGGGCAUGGCACGC” and “UUCUGCAUCUCGGCCGCCACUCACUAGUGAUGUUAGUAAGGAGCGACUAGAAAAGUCCAGUUAAUGAGGACCGGGAGAAGCUCUU [Exclusion Tryptophan B GF 1]” are within 1.5-fold of each other in “apparent KD of K4 kissing-loop reporter” value: 0.241 µM for the first, 0.199 µM for the second.

“AGGGCUGAGAGCGAUACCAGCGGUAACUGUAUGGUCCAAUAGAGUGAUGUUUUAUAGAGCCGCCCUUGGCAGCGCAAUCUAUUAG [XTheo-B5]” and “AUCUUGUUUGGAGGAUAUUCUUUAUUCGACAUAACCUUCUAUAAGGUGCAGUGAUGUUGCAAUAUAGGAGAAGGUCGAGUGAGAU [Exclusion FMN B GF 17]” are within 1.5-fold of each other in “apparent KD of K4 kissing-loop reporter” value: 0.184 µM for the first, 0.166 µM for the second.

“UAAGAAUAAGUAGCAGUGAUGUUGCUACUGCGAGGACCGGUACGGCCGCCACUCGAGUCCUCGAAGCGUCACUGAACGAGGAAUA [whbob_SS_Tryp_A_m13]” and “UGUCAUUGGUCUGAUACCAGAAGAAAUCUGGAGUGAUGUUCCAAGUACGACAAAAGUCGCUUCCCUUGGCAGCAGACCGAUGACU [TheoBS 21 #SwitchBubble 13 #StaticStem]” are within 1.5-fold of each other in “apparent KD of K4 kissing-loop reporter” value: 0.433 µM for the first, 0.406 µM for the second.

Compared with “GCUAGGCAUGCAGGAUAUCGUGGAGUGAUGUUCCGUUGGCUGCUAGCGGAAAACGCUAGCAGCCUACGAGAAGGGCAUGCCUAGC”, “UAACUUGCAGUGAUGUUGCAAGAACUGGAUACCAGCAUGGAAACAUGCCCUUGGCAGCCAGAAGCUGGCUGCUUGUAAUGUCAGC [Design6]” is 3.1-fold lower in “apparent KD of K4 kissing-loop reporter” value: 0.41 µM for the first, 0.131 µM for the second.

Going from “CCUUCUCUUGGUAGUGAUGUUAUCAAGGACAAGGAUAUCAUCUCAAUGAGAAGGUGUCCUUGAUAACAUGGAGGUCUGAAACAGA [Omei KL FMN A Exc C v8]” to “CGCCGCAAGGCGAGCGCUCCCACUCCGGAAGGAGCGCCCGCAAGGGCAGGUAGGUCGCCGGAGUGAUGUUCCGGUGGAGGGCUCG [#2 Exclusion - Arginine A Attempt #15 (Inspired by Omei)]”, the “apparent KD of K4 kissing-loop reporter” value falls from 0.455 µM to 0.222 µM (2-fold).

Going from “UGUCAUUGGUCGGCCGCCACUUCAUAAAGAGUGAUGUUCUAAAAGACGGAUCGAAAGAUCUGUCGAAGGACCGGGAUCGAUGACU [FiskerMod 11 - Jieux - Same State - Tryptophan B]” to “AAAUUGUUUAGAGGAUAUUCUUUAUUCGACAUAACCUUCUAUAAGGUGCAGUGAUGUUGCAAUAUAGGAGAAGGCUGAGCGAUAA [Exclusion FMN B Gf 14]”, the “apparent KD of K4 kissing-loop reporter” value falls from 0.569 µM to 0.196 µM (2.9-fold).

First: CGCAGUGAUGUUGCGAGUAGCUACAGGGAAGGAGCGUGCUAGAGCACAGGUAGGUCGCCCACGCAGUGAUGUUGUGUCAAAGGGU [Exclusion Arginine A GF 11]
Second: UCUGCUGUAUAUGAUACCAGCAGUGAGAGACCAGAAGUAUAGUGAUGUUAUAUGAGAGAAUGCCCUUGGCAGCGUGUGCGGGUGG [SSTheophylB.Z]
The “apparent KD of K4 kissing-loop reporter” value of the first is 2.1-fold higher: 0.179 µM for the first, 0.0847 µM for the second.

First: AGACCUCAGUGAUGUUGAGGUAACACUGAUACCAGCGACUUGAUUCGCCCUUGGCAGCAGUCCACCGAGGUAUCUGAUCAGGUCA [#25 K4 Theophylline A Exclusion]
Second: GCGCGCGGCGGAGGAUAUAGCAGGUGAUCCGAGAAAGUGAGUGAUGUUUACGGAGAUGAUGAUAUGUUAGAAGGCCGCCGCGCGC [abcdefghijklmnopqrstuv]
The “apparent KD of K4 kissing-loop reporter” value of the first is 2.5-fold lower: 0.168 µM for the first, 0.425 µM for the second.

Going from “GCAAAACUCAGUGAUGUUGAGAUAUCGGAAGGAGCGCGUGAAAACGCAGGUAGGUCGCCGAUUCAAUGAGUUUCUCGUUGUUUGC [Arginine A K4 20]” to “ACCCGGGCCCGAAAGGGCCCGGGAAGAGAUACCAGCAGCGAAAGCUGCCCUUGGCAGCUCACUUAGUGAUGUUGAGUAUAGGGUA [#22 K4 Theophylline A Same State]”, the “apparent KD of K4 kissing-loop reporter” value falls from 0.303 µM to 0.185 µM (1.6-fold).

With “UGUACCGAGUCAGGAUAUGGCGUCGAAAGACGAAACCAGUGAUGUUGGAAUCGAUCGAAAGAUCGUCCAGAAGGGACUUGGUACU [FmnBS 21 #SwitchBubble #StaticStem #DoubleMagnetSystem]” the “apparent KD of K4 kissing-loop reporter” value was 0.349 µM.
